Experimental data taken from PMC8452709, “Effects of apolipoprotein E isoform, sex, and diet on insulin BBB pharmacokinetics in mice” (Scientific Reports, 2021).

Assays:
brain endothelial cell = test: 125I-insulin reversible vascular binding (Vi), y-intercept of multiple-time regression; assay type: in vivo, mice (human E3- and E4-targeted replacement); settings: for Vi, reversible vascular binding: 15 mo, iv, albumin-corrected
Description: (§1) Ten micrograms of human insulin (Sigma-Aldrich, St. Louis, MO, USA) was diluted in 0.25 M chloride-free sodium phosphate buffer (PB), pH 7.5, and radioactivity labeled with 0.5–1 mCi Na^125I (Perkin Elmer, Waltham, MA, USA) using the chloramine-T (Sigma-Aldrich) method similar to our previously reported methods. […] Protein labelling by ^125I or by ^99mTc isotopes was characterized by 15% trichloroacetic acid (TCA) precipitation.
(§2) Mice were anesthetized with an intraperitoneal injection of 0.1–0.15 ml 40% urethane to minimize pain and distress. […] Blood from the left carotid artery was collected between 0.5 and 10 min after intravenous injection. Mice were immediately decapitated and their whole brains quickly removed and weighed. Each mouse provided a single blood sample and time matched brain sample. The arterial blood was centrifuged at 5400g for 10 min at 4 °C and serum collected. The brains were dissected into regions according to the method described in Ref.[56] and weighed. The levels of radioactivity in serum (50 μl) and brain regions were counted in a gamma counter (Wizard2, Perkin Elmer, Waltham, MA). […] Expt was calculated from the formula:1 Exposuretime=∫0tCptdt/Cpt, where Cp is the level of radioactivity (cpm) in serum at time (t). Expt corrects for the clearance of peptide from the blood. The influx of insulin was calculated by multiple-time regression analysis as described by Patlaket al.[55],[57]:2 Am/Cpt=Ki∫0tCptdt/Cpt+Vi, where Am is level of radioactivity (cpm) per g of brain tissue at time t, Cpt is the level of radioactivity (cpm) per ml arterial serum at time t, Ki (μl/g-min) is the steady-state rate of unidirectional solute influx from blood to brain. Vi (μl/g) is the level of rapid and reversible binding for brain which usually is a combination of vascular space plus any brain endothelial cell receptor binding. The brain/serum (B/S) ratios for insulin were corrected for vascular space by subtracting the corresponding ratio for albumin, yielding a delta B/S ratio. The linear portion of the relation between the delta B/S ratio versus Expt was used to calculate the Ki (μl/g-min) with its standard error term, and the y-intercept determined as representation of the Vi (μl/g)[55].
(§3) As a priori sex differences were expected, male and female data were analyzed separately. Regression analyses and other statistical analyses were performed with Prism 8.0 (GraphPad Software Inc., San Diego, CA, USA) and SPSS (Chicago, IL) software. Brain weight means are reported with their standard error terms and analyzed using two-way analysis of variance (ANOVA) followed by Sidak’s post hoc test when appropriate. For pharmacokinetic studies, the slope of the linear regression lines (Ki), reported with their correlation coefficients (r), and y-intercepts (Vi) were compared statistically using the Prism software, as described.

[1] = tested on: blood–brain barrier (BBB); test: 125I-insulin BBB transport, multiple-time regression analysis (Ki); assay type: in vivo, mice (human E3- and E4-targeted replacement); settings: for Ki, linear BBB transport (unidirectional influx rate): 15 mo, iv, albumin-corrected
Description: as §1, §2, §3

[2] = female E3 HFD mice, hippocampus
[3] = female E3 HFD mice, parietal cortex
[4] = female E3 HFD mice, pons/medulla
[5] = female E3 LFD mice, hippocampus
[6] = female E3 LFD mice, pons/medulla
[7] = female E4 HFD mice, frontal cortex
[8] = female E4 HFD mice, pons/medulla
[9] = female E4 LFD mice, hypothalamus
[10] = female E4 LFD mice, pons/medulla
[11] = male E3 HFD mice, occipital cortex
[12] = male E3 LFD mice, occipital cortex
[13] = male E3 LFD mice, olfactory bulb
[14] = male E4 LFD mice, parietal cortex

## 125I-insulin: human insulin (Sigma-Aldrich) radioactively labeled with Na125I by the chloramine-T method
Brain endothelial cell; [2]
  Vi, reversible vascular binding: 5.8 µL/g
Brain endothelial cell; female E3 HFD mice, midbrain
  Vi, reversible vascular binding: 2.1 µL/g
Brain endothelial cell; [3]
  Vi, reversible vascular binding: 2.3 µL/g
Brain endothelial cell; [4]
  Vi, reversible vascular binding: 4.4 µL/g
Brain endothelial cell; female E3 LFD mice, frontal cortex
  Vi, reversible vascular binding: 6.3 µL/g
Brain endothelial cell; [5]
  Vi, reversible vascular binding: 5.1 µL/g
Brain endothelial cell; female E3 LFD mice, hypothalamus
  Vi, reversible vascular binding: -0.2 µL/g
Brain endothelial cell; female E3 LFD mice, olfactory bulb
  Vi, reversible vascular binding: 11.7 µL/g
Brain endothelial cell; [6]
  Vi, reversible vascular binding: 7.9 µL/g
Brain endothelial cell; female E3 LFD mice, striatum
  Vi, reversible vascular binding: 4.0 µL/g
Brain endothelial cell; female E3 LFD mice, thalamus
  Vi, reversible vascular binding: 8.4 µL/g
Brain endothelial cell; [7]
  Vi, reversible vascular binding: 5.2 µL/g
Brain endothelial cell; female E4 HFD mice, occipital cortex
  Vi, reversible vascular binding: 4.1 µL/g
Brain endothelial cell; [8]
  Vi, reversible vascular binding: 3.0 µL/g
Brain endothelial cell; female E4 LFD mice, hippocampus
  Vi, reversible vascular binding: 8.8 µL/g
Brain endothelial cell; [9]
  Vi, reversible vascular binding: 4.4 µL/g
Brain endothelial cell; female E4 LFD mice, midbrain
  Vi, reversible vascular binding: 5.4 µL/g
Brain endothelial cell; female E4 LFD mice, occipital cortex
  Vi, reversible vascular binding: 3.9 µL/g
Brain endothelial cell; female E4 LFD mice, parietal cortex
  Vi, reversible vascular binding: 7.9 µL/g
Brain endothelial cell; [10]
  Vi, reversible vascular binding: 9.4 µL/g
Brain endothelial cell; female E4 LFD mice, striatum
  Vi, reversible vascular binding: 6.3 µL/g
Brain endothelial cell; female E4 LFD mice, thalamus
  Vi, reversible vascular binding: 8.8 µL/g
Brain endothelial cell; [11]
  Vi, reversible vascular binding: 0.2 µL/g
Brain endothelial cell; male E3 HFD mice, olfactory bulb
  Vi, reversible vascular binding: 0.4 µL/g
Brain endothelial cell; male E3 HFD mice, pons/medulla
  Vi, reversible vascular binding: 1.7 µL/g
Brain endothelial cell; male E3 HFD mice, thalamus
  Vi, reversible vascular binding: 2.3 µL/g
Brain endothelial cell; male E3 LFD mice, frontal cortex
  Vi, reversible vascular binding: 4.0 µL/g
Brain endothelial cell; [12]
  Vi, reversible vascular binding: 5.0 µL/g
Brain endothelial cell; [13]
  Vi, reversible vascular binding: 5.9 µL/g
Brain endothelial cell; male E3 LFD mice, parietal cortex
  Vi, reversible vascular binding: 5.8 µL/g
Brain endothelial cell; male E4 HFD mice, pons/medulla
  Vi, reversible vascular binding: 3.4 µL/g
Brain endothelial cell; male E4 HFD mice, striatum
  Vi, reversible vascular binding: 4.2 µL/g
Brain endothelial cell; male E4 LFD mice, cerebellum
  Vi, reversible vascular binding: 8.1 µL/g
Brain endothelial cell; male E4 LFD mice, hypothalamus
  Vi, reversible vascular binding: 8.0 µL/g
Brain endothelial cell; male E4 LFD mice, occipital cortex
  Vi, reversible vascular binding: 4.1 µL/g
Brain endothelial cell; [14]
  Vi, reversible vascular binding: 3.4 µL/g
Brain endothelial cell; male E4 LFD mice, striatum
  Vi, reversible vascular binding: 4.4 µL/g
Brain endothelial cell; male E4 LFD mice, thalamus
  Vi, reversible vascular binding: 4.1 µL/g
Brain endothelial cell; males, between apoE isoform/diet groups, p = 0.002
  Whole brain reversible vascular binding (Vi, y-axis intercept): differences
[1]; female E3 HFD mice, cerebellum
  Ki, linear BBB transport (unidirectional influx rate): 1.34 µL/g/min
[1]; [2]
  Ki, linear BBB transport (unidirectional influx rate): 0.96 µL/g/min
[1]; female E3 HFD mice, occipital cortex
  Ki, linear BBB transport (unidirectional influx rate): 1.03 µL/g/min
[1]; female E3 HFD mice, olfactory bulb
  Ki, linear BBB transport (unidirectional influx rate): 1.19 µL/g/min
[1]; [3]
  Ki, linear BBB transport (unidirectional influx rate): 0.95 µL/g/min
[1]; [4]
  Ki, linear BBB transport (unidirectional influx rate): 1.31 µL/g/min
[1]; female E3 HFD mice, striatum
  Ki, linear BBB transport (unidirectional influx rate): 1.32 µL/g/min
[1]; female E3 HFD mice, thalamus
  Ki, linear BBB transport (unidirectional influx rate): 0.91 µL/g/min
[1]; female E3 LFD mice, cerebellum
  Ki, linear BBB transport (unidirectional influx rate): 1.17 µL/g/min
[1]; [5]
  Ki, linear BBB transport (unidirectional influx rate): 1.43 µL/g/min
[1]; female E3 LFD mice, midbrain
  Ki, linear BBB transport (unidirectional influx rate): 0.78 µL/g/min
[1]; female E3 LFD mice, occipital cortex
  Ki, linear BBB transport (unidirectional influx rate): 0.73 µL/g/min
[1]; female E3 LFD mice, olfactory bulb, no significant transport (p > 0.05)
  Ki, linear BBB transport (unidirectional influx rate): 1.06 µL/g/min
[1]; female E3 LFD mice, parietal cortex, no significant transport (p > 0.05)
  Ki, linear BBB transport (unidirectional influx rate): 0.64 µL/g/min
[1]; [6]
  Ki, linear BBB transport (unidirectional influx rate): 0.91 µL/g/min
[1]; female E3 LFD mice, striatum
  Ki, linear BBB transport (unidirectional influx rate): 0.56 µL/g/min
[1]; female E3 LFD mice, thalamus, no significant transport (p > 0.05)
  Ki, linear BBB transport (unidirectional influx rate): 0.71 µL/g/min
[1]; female E4 HFD mice, cerebellum
  Ki, linear BBB transport (unidirectional influx rate): 1.04 µL/g/min
[1]; [7]
  Ki, linear BBB transport (unidirectional influx rate): 0.62 µL/g/min
[1]; female E4 HFD mice, hypothalamus
  Ki, linear BBB transport (unidirectional influx rate): 1.41 µL/g/min
[1]; female E4 HFD mice, olfactory bulb
  Ki, linear BBB transport (unidirectional influx rate): 1.34 µL/g/min
[1]; female E4 HFD mice, parietal cortex
  Ki, linear BBB transport (unidirectional influx rate): 0.92 µL/g/min
[1]; [8]
  Ki, linear BBB transport (unidirectional influx rate): 1.27 µL/g/min
[1]; female E4 HFD mice, striatum, no significant transport (p > 0.05)
  Ki, linear BBB transport (unidirectional influx rate): 0.85 µL/g/min
[1]; female E4 LFD mice, cerebellum
  Ki, linear BBB transport (unidirectional influx rate): 1.63 µL/g/min
[1]; [9]
  Ki, linear BBB transport (unidirectional influx rate): 1.12 µL/g/min
[1]; female E4 LFD mice, midbrain
  Ki, linear BBB transport (unidirectional influx rate): 0.50 µL/g/min
[1]; [10]
  Ki, linear BBB transport (unidirectional influx rate): 0.81 µL/g/min
[1]; female E4 LFD mice, striatum, no significant transport (p > 0.05)
  Ki, linear BBB transport (unidirectional influx rate): 0.30 µL/g/min
[1]; females, effect of genotype or diet
  Whole brain BBB transport or vascular binding: no differences
[1]; male E3 HFD mice, cerebellum
  Ki, linear BBB transport (unidirectional influx rate): 1.08 µL/g/min
[1]; male E3 HFD mice, hippocampus, no significant transport (p > 0.05)
  Ki, linear BBB transport (unidirectional influx rate): 1.08 µL/g/min
[1]; male E3 HFD mice, hypothalamus, no significant transport (p > 0.05)
  Ki, linear BBB transport (unidirectional influx rate): 0.57 µL/g/min
[1]; male E3 HFD mice, midbrain, no significant transport (p > 0.05)
  Ki, linear BBB transport (unidirectional influx rate): 0.96 µL/g/min
[1]; [11]
  Ki, linear BBB transport (unidirectional influx rate): 0.88 µL/g/min
[1]; male E3 HFD mice, parietal cortex, no significant transport (p > 0.05)
  Ki, linear BBB transport (unidirectional influx rate): -0.07 µL/g/min
[1]; male E3 HFD mice, striatum, no significant transport (p > 0.05)
  Ki, linear BBB transport (unidirectional influx rate): 0.04 µL/g/min
[1]; male E3 HFD mice, thalamus, no significant transport (p > 0.05)
  Ki, linear BBB transport (unidirectional influx rate): 0.65 µL/g/min
[1]; male E3 LFD mice, cerebellum
  Ki, linear BBB transport (unidirectional influx rate): 1.06 µL/g/min
[1]; male E3 LFD mice, hippocampus
  Ki, linear BBB transport (unidirectional influx rate): 0.92 µL/g/min
[1]; male E3 LFD mice, hypothalamus
  Ki, linear BBB transport (unidirectional influx rate): 1.22 µL/g/min
[1]; male E3 LFD mice, midbrain
  Ki, linear BBB transport (unidirectional influx rate): 0.40 µL/g/min
[1]; [12]
  Ki, linear BBB transport (unidirectional influx rate): 0.75 µL/g/min
[1]; [13]
  Ki, linear BBB transport (unidirectional influx rate): 1.28 µL/g/min
[1]; male E3 LFD mice, pons/medulla
  Ki, linear BBB transport (unidirectional influx rate): 1.41 µL/g/min
[1]; male E3 LFD mice, striatum, no significant transport (p > 0.05)
  Ki, linear BBB transport (unidirectional influx rate): 0.59 µL/g/min
[1]; male E3 LFD mice, thalamus, no significant transport (p > 0.05)
  Ki, linear BBB transport (unidirectional influx rate): 0.56 µL/g/min
[1]; male E4 HFD mice, hippocampus, no significant transport (p > 0.05)
  Ki, linear BBB transport (unidirectional influx rate): 0.36 µL/g/min
[1]; male E4 HFD mice, hypothalamus, no significant transport (p > 0.05)
  Ki, linear BBB transport (unidirectional influx rate): 0.35 µL/g/min
[1]; male E4 HFD mice, pons/medulla
  Ki, linear BBB transport (unidirectional influx rate): 0.65 µL/g/min
[1]; male E4 HFD mice, striatum, no significant transport (p > 0.05)
  Ki, linear BBB transport (unidirectional influx rate): -0.12 µL/g/min
[1]; male E4 LFD mice, frontal cortex
  Ki, linear BBB transport (unidirectional influx rate): 0.65 µL/g/min
[1]; male E4 LFD mice, hippocampus
  Ki, linear BBB transport (unidirectional influx rate): 1.28 µL/g/min
[1]; male E4 LFD mice, hypothalamus, no significant transport (p > 0.05)
  Ki, linear BBB transport (unidirectional influx rate): 0.46 µL/g/min
[1]; male E4 LFD mice, midbrain
  Ki, linear BBB transport (unidirectional influx rate): 0.53 µL/g/min
[1]; [14]
  Ki, linear BBB transport (unidirectional influx rate): 0.73 µL/g/min
[1]; male E4 LFD mice, striatum, no significant transport (p > 0.05)
  Ki, linear BBB transport (unidirectional influx rate): 0.57 µL/g/min
[1]; males, decreases due to HFD, p = 0.056
  Whole brain BBB transport rate (Ki): did not reach significance
